Test results reported in patent CN117264062A (SHANGHAI HRAIN BIOTECHNOLOGY CO LTD, dated 2023).

T1: 重组人Trop2-avi-his抗原蛋白 (recombinant human Trop2 extracellular domain with C-terminal avi-tag and 6×his-tag) (human, UniProt P09758 27-274)
T1 construct: The protein was coated unbiotinylated on the ELISA plate; A form biotinylated at the avi-tag was used for panning and for CAR staining; also called 重组人Trop2蛋白; Trop2蛋白
T1 sequence: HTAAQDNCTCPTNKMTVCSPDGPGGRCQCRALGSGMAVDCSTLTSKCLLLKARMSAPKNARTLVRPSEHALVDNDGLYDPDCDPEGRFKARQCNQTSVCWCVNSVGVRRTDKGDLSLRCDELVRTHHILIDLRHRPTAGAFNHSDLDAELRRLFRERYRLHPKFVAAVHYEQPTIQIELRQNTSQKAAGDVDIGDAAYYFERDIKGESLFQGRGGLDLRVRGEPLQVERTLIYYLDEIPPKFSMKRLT

B1: L2C9 anti-human Trop2 scFv (scFv, V domains shown)
VH: EVQLLESGGGVVQPGMSLRVSCAASGFTFSNYGMHWVRQAPGKGLEWVGIIWSDGTYTYYGDSVQGRFTISRDNSENTLHLQMNSLRAEDTAVYYCAKSLTPLGGSFRIGDWGQGTLVTVSS
VL: QSVLTQPPSVSGAPGQRVTISCTGSSSNIGAGYDVHWYQQLPGTAPKLLIYDNTNRPSGVPDRFSGSKSGTSASLAITGLQADDEGDYYCQSYDSRLNALVFGGGTKLTVL
notes: Tested as an scFv in a periplasmic extract of TG1 (pComb3sc phagemid) and detected with anti-HA HRP
B2: K2F5 anti-human Trop2 scFv (scFv, V domains shown)
VH: QVQLVQSGAEVKKPGESLTISCKSSGDNFSTNWIGWVRQMPGKGLEWMGIIYPGDSDSRYSPSFEGQVTISADKSISTAYLQWSSLKASDTAMYYCARYQGSTTPFDYWGQGTTVTVSS
VL: not shown
notes: as for B1
B3: L2C8 anti-human Trop2 scFv (scFv, V domains shown)
VH: EVQLVESGGALVQRGGSLRLSCSASGFSVRNNYITWVRQAPGKGLEWVAIVFPGGSSYHADSVKGRFTISRDLSKNSVYLEMNSLREDDTGVYFCARDSGSPLWRGHFQYWGQGTTVTVSS
VL: QSVLTQPPSVSGAPGQRVTISCTGSSANIGAGYDVHWYQQLPGTAPKLLIYDNNKRPSGIPDRFSGSNSGTSATLGITGLQTGDEADYYCGTWDTSLSAWVFGGGTRLTVL
notes: as for B1
B4: L3G5 anti-human Trop2 scFv (scFv, V domains shown)
VH: QLQLQESGPGLLKPSETLSLICTVSGGSISSHYWSWIRQTPGKGLEWIGWIHSSGITNYNPSLMGRVTMSVDTSKNQFPLKVNSVTAADTAVYYCARGLRLTDDAFDIWGQGTMVTVSS
VL: QSALTQPASVSGSPGQSITISCTGTSSDVGGYNYVSWYQQHPGKAPKLMIHDVSNRPSGVSNRFFGSKSGNTASLTISGLQAEDEADYYCSSYTSSNTLAFGGGTKLTVL
notes: as for B1

Molecular target: T1, 重组人Trop2-avi-his抗原蛋白 (recombinant human …)
Test: ELISA: recombinant human Trop2 coated at 100 ng/well, scFv periplasmic extract, anti-HA HRP detection, OD450

Row | Binder | binding result
1 | B1 | binds
2 | B2 | binds
3 | B3 | binds
4 | B4 | binds
